Measurements published in publication PMC5031973.

Molecular target: recombinant human β-actin (wild type) (human) (UniProt P60709)
Assay: ITC; VP-ITC, 25 °C, G-buffer (5 mM Tris-HCl pH 7.8, 0.1 mM CaCl2, 0.2 mM DTT, 0.2 mM ATP, 0.01% NaN3); 29 injections of 10 μl Tβ4 (100 μM) into actin (10 μM) in the cell

Q: Which Kd does the source give for “thymosin β4 (from UniProt P62328 1-44) (peptide)” here?
A: 500 nM
